T1: IL-18 receptors on HEK-Blue IL-18 reporter cells (UniProt Q13478 19-541; O95256 20-599, limits assumed)
T1 sequence (looked up) 1: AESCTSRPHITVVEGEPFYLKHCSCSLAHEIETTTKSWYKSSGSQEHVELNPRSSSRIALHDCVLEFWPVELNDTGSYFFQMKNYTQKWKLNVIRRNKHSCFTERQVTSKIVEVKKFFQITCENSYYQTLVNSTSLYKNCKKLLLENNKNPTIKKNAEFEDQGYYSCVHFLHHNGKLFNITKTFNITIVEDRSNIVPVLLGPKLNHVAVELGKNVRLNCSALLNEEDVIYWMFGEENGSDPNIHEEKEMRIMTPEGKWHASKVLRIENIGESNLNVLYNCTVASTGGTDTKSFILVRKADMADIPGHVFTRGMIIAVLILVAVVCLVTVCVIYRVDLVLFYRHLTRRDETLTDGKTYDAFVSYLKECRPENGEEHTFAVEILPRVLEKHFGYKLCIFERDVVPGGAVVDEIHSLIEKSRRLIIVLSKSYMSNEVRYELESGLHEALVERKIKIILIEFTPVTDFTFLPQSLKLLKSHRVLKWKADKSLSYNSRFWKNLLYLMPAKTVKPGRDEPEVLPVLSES
T1 sequence (looked up) 2: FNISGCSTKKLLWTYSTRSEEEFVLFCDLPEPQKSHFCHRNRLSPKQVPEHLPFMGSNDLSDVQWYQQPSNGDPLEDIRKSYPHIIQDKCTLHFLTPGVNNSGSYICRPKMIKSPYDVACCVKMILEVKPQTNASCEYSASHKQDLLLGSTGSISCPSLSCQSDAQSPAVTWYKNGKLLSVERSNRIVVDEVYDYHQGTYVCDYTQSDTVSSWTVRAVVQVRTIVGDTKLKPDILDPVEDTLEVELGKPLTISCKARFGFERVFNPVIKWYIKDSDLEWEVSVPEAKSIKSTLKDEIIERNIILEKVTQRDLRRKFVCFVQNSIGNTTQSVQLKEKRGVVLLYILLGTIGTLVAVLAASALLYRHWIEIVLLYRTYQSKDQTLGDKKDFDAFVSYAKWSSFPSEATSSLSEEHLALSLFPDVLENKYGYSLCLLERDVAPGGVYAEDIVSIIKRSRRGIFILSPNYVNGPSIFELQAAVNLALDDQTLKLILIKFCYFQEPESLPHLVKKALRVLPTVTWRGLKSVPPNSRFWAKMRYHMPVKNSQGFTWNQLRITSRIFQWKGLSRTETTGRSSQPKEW

T2: IL-18 binding protein (IL-18BP) (UniProt O95998 31-194)
T2 sequence (looked up): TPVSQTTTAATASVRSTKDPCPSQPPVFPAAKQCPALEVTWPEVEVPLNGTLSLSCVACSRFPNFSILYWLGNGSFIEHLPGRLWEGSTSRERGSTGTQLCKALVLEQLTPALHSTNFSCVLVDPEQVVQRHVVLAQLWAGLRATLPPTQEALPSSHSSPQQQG


Key:
[1] = target: T1, IL-18 receptors on HEK-Blue IL-18 …; assay: cell-based or functional assay
[2] = target: T2, IL-18 binding protein (IL-18BP); assay: cell-based or functional assay

Binder	Activity, No BP, DF-100000 [1]	Activity, No BP, DF-500000 [1]	Activity, No BP, DF-2500000 [1]	Activity, +100 nM BP, DF-1000002 [2]	Activity, +100 nM BP, DF-5000003 [2]	Activity, +100 nM BP, DF-25000004 [2]	Ratio (-BP/+BP), DF-1000005 [2]	Ratio (-BP/+BP), DF-5000006 [2]	Ratio (-BP/+BP), DF-25000007 [2]
IL-18 variant G3R, E6D, D54A, S55Q, T63S, N91K, R104P (ligand) YFRKLDSKLSVIRNLNDQVLFIDQGNRPLFEDMTDSDMRDNAPRTIFIISMYKAQQPRGMAVSISVKSEKISTLSSENKIISFKEMNPPDKIKDTKSDIIFFQPSVPGHDNKMQFESSSYEGYFLASEKERDLFKLILKKEDELGDRSIMFTVQNED	0.07	0.08	0.07	0.07	0.08	0.07	0.98	0.98	0.96
IL-18 variant G3P, E6S, K53N, D54Y, S55P, T63I, N91K, R104H (ligand) YFPKLSSKLSVIRNLNDQVLFIDQGNRPLFEDMTDSDMRDNAPRTIFIISMYNYPQPRGMAVIISVKSEKISTLSSENKIISFKEMNPPDKIKDTKSDIIFFQHSVPGHDNKMQFESSSYEGYFLASEKERDLFKLILKKEDELGDRSIMFTVQNED	0.07	0.07	0.07	0.07	0.07	0.07	1.03	0.94	0.95
IL-18 variant G3L, E6Q, T63S, N91L, R104P (ligand) YFLKLQSKLSVIRNLNDQVLFIDQGNRPLFEDMTDSDMRDNAPRTIFIISMYKDSQPRGMAVSISVKSEKISTLSSENKIISFKEMNPPDLIKDTKSDIIFFQPSVPGHDNKMQFESSSYEGYFLASEKERDLFKLILKKEDELGDRSIMFTVQNED	0.15	0.09	0.1	0.1	0.08	0.07	1.44	1.11	1.34
IL-18 variant G3P, E6S, K53R, D54Y, S55P, T63I, N91K (ligand) YFPKLSSKLSVIRNLNDQVLFIDQGNRPLFEDMTDSDMRDNAPRTIFIISMYRYPQPRGMAVIISVKSEKISTLSSENKIISFKEMNPPDKIKDTKSDIIFFQRSVPGHDNKMQFESSSYEGYFLASEKERDLFKLILKKEDELGDRSIMFTVQNED	0.15	0.08	0.07	0.14	0.08	0.07	1.07	0.97	0.99
IL-18 variant G3P, E6N, D54Y, T63S, N91S, R104Q (ligand) YFPKLNSKLSVIRNLNDQVLFIDQGNRPLFEDMTDSDMRDNAPRTIFIISMYKYSQPRGMAVSISVKSEKISTLSSENKIISFKEMNPPDSIKDTKSDIIFFQQSVPGHDNKMQFESSSYEGYFLASEKERDLFKLILKKEDELGDRSIMFTVQNED	0.21	0.1	0.07	0.25	0.1	0.08	0.86	1.02	0.89
IL-18 variant G3P, E6R, K53T, D54Y, S55I, T63V, N91G, R104K (ligand) YFPKLRSKLSVIRNLNDQVLFIDQGNRPLFEDMTDSDMRDNAPRTIFIISMYTYIQPRGMAVVISVKSEKISTLSSENKIISFKEMNPPDGIKDTKSDIIFFQKSVPGHDNKMQFESSSYEGYFLASEKERDLFKLILKKEDELGDRSIMFTVQNED	0.14	0.08	0.07	0.15	0.08	0.07	0.93	0.96	0.99
IL-18 variant E6T, D54P, S55K, R104S (ligand) YFGKLTSKLSVIRNLNDQVLFIDQGNRPLFEDMTDSDMRDNAPRTIFIISMYKPKQPRGMAVTISVKSEKISTLSSENKIISFKEMNPPDNIKDTKSDIIFFQSSVPGHDNKMQFESSSYEGYFLASEKERDLFKLILKKEDELGDRSIMFTVQNED	0.17	0.09	0.1	0.18	0.09	0.08	0.98	0.99	1.3
IL-18 variant G3P, E6D, K53T, D54N, T63A, N91T, R104P (ligand) YFPKLDSKLSVIRNLNDQVLFIDQGNRPLFEDMTDSDMRDNAPRTIFIISMYTNSQPRGMAVAISVKSEKISTLSSENKIISFKEMNPPDTIKDTKSDIIFFQPSVPGHDNKMQFESSSYEGYFLASEKERDLFKLILKKEDELGDRSIMFTVQNED	0.07	0.07	0.07	0.07	0.08	0.07	0.95	0.92	1.01
IL-18 variant G3S, E6H, K53Y, D54P, S55Y, T63S, N91A, R104S (ligand) YFSKLHSKLSVIRNLNDQVLFIDQGNRPLFEDMTDSDMRDNAPRTIFIISMYYPYQPRGMAVSISVKSEKISTLSSENKIISFKEMNPPDAIKDTKSDIIFFQSSVPGHDNKMQFESSSYEGYFLASEKERDLFKLILKKEDELGDRSIMFTVQNED	0.09	0.09	0.07	0.07	0.08	0.08	1.18	1.1	0.95
IL-18 variant G3Q, E6N, K53T, D54A, N91K, R104P (ligand) YFQKLNSKLSVIRNLNDQVLFIDQGNRPLFEDMTDSDMRDNAPRTIFIISMYTASQPRGMAVTISVKSEKISTLSSENKIISFKEMNPPDKIKDTKSDIIFFQPSVPGHDNKMQFESSSYEGYFLASEKERDLFKLILKKEDELGDRSIMFTVQNED	0.07	0.08	0.07	0.07	0.09	0.08	1.03	0.89	0.95

Source: US20240182536A1 (MURAL ONCOLOGY, published 2024)
